The values that follow come from patent publication US20160152676A1.

This test deals with gp41 of HIV-1 IIIB virus (HIV-1 IIIB) (UniProt P04578). Description: cell-based or functional assay.

On to “C34-ELMO (from UniProt Q92556 553-675) (designed binder)”, for which the inhibition of HIV-1 infection in cellulo (GFP+ CEM-GFP cells, flow cytometry); concentration at which some inhibition is seen worked out at 250 nM.
